{"source": "patent US20250043302A1", "about": "“MUTATED HYDROXYPHENYLPYRUVATE DIOXYGENASE POLYPEPTIDE, AND CODING GENE AND USE THEREOF” (BEIJING DABEINONG BIOTECHNOLOGY CO., LTD., priority 2021, published 2025)", "format_in_all_cases": "in vivo", "key": {"[1]": {"test_system": "Arabidopsis thaliana T1 plants", "assay": "Mesotrione tolerance of transgenic Arabidopsis thaliana T1 plants (spray, bleached leaf area grade, damage score)", "set-up": "Scores: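 damage score 0-100 computed as Σ(N×S)/(T×M)×100 over grades 0-3 with higher meaning more damage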", "conditions": "Arabidopsis thaliana T1 plants; for Grade 0 (classification and statistics of the grade of pesticide damage; number of plants) / Grade 1 (classification and statistics of the grade of pesticide damage; number of plants) / Grade 2 (classification and statistics of the grade of pesticide damage; number of plants) / Grade 3 (classification and statistics of the grade of pesticide damage; number of plants): 16 plants", "summary_of_the_method": "(§1)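 Damage graded 0–3 from the proportion of bleached leaf area 7 days after spraying. Plants were glufosinate-selected T1 lines, 18 days after sowing, plus vector and wild-type controls. Rates: mesotrione 52.5–420, isoxaflutole 35–280, topramezone 25–200 g ai/ha, with water (0×).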"}, "[2]": {"test_system": "Arabidopsis thaliana T1 plants", "assay": "Topramezone tolerance of transgenic Arabidopsis thaliana T1 plants (spray, bleached leaf area grade, damage score)", "conditions": "7 DAT, Table 4; for Classification and statistics of the grade of pesticide damage: Grade 0 / Classification and statistics of the grade of pesticide damage: Grade 1 / Classification and statistics of the grade of pesticide damage: Grade 2 / Classification and statistics of the grade of pesticide damage: Grade 3: number of plants; for Scores: pesticide damage score 0-100", "summary_of_the_method": "as §1"}, "[3]": {"test_system": "Arabidopsis thaliana T1 plants", "assay": "Isoxaflutole tolerance of transgenic Arabidopsis thaliana T1 plants (spray, bleached leaf area grade, damage score)", "set-up": "Scores (pesticide damage): scale not given here", "conditions": "spray, Arabidopsis thaliana T1 plants; for Classification and statistics of the grade of pesticide damage: Grade 0 (number of plants) / Classification and statistics of the grade of pesticide damage: Grade 1 (number of plants) / Classification and statistics of the grade of pesticide damage: Grade 2 (number of plants) / Classification and statistics of the grade of pesticide damage: Grade 3 (number of plants): 16 plants", "summary_of_the_method": "as §1"}, "[4]": {"conditions": "isoxaflutole 35 g ai/ha (0.5x field concentration)"}, "[5]": {"conditions": "isoxaflutole 70 g ai/ha (1x field concentration)"}}, "data": [{"molecule": "BnHPPDm-F372A-F383W-02: nucleotide sequence encoding Brassica napus HPPD with F372A+F383W; vector DBN11745 (nucleic acid, BnHPPDm-F372A-F383W-02 Nucleotide Sequence, vector DBN11745) DNA: ATGGGACATGAAAACGCGGCAGTGTGTGAAACTCAACAACATGATGACGCCGCCTCCCCGGGGTTTAAACTTGTCGGGTTCTCAAAATTTGTTAGGAAGAATCCAAAGTCTGACAAGTTCAAGGTGAAACGCTTCCACCACATCGAGTTCTGGTGCGGGGATGCAACAAATGTTTCACGCCGCTTTTCATGGGGACTAGGAATGAGGTTTAGCGCAAAGAGTGATCTCTCCACTGGTAATATGGTTCATGCGAGCTACTTGCTCACATCTGGAGACCTGAGATTCCTCTTCACCGCACCATATTCTCCCTCCCTGTCAGCTGGTGAAGCTCAGCCTTCAGCAACTGCAAGTATCCCTTCGTTTGATCATGCATCGTGCAGGTCTTTCTTCAGTTCACATGGACTCGGCGTCAGAGCAGTAGCGATCGAAGTAGAGGATGCTGAATCAGCTTTCTCCATATCTGTCGCCAACGGCGCGGTGCCTTCTTCTCCACCAAACGTCTTGAATGGTGCTGTTACCATTGCTGAGGTGAAGCTGTACGGAGATGTTGTTTTAAGATATGTTTCATATTACAATGGGACCGTTTCTTTTCTTCCCGGCTTTGAATCTGTTGATGATACTTCTTCCTTCCCTCTTGATTATGGGATCAGGCGGCTGGACCACGCCGTCGGCAACGTGCCGGAGTTAGGTCCTGCTTTGACATATCTTGCCGGCTTCACTGGATTCCATCAATTTGCAGAGTTTACGGCTGACGACGTGGGGACCGCGGAGAGTGGGCTGAACTCAGCAGTCTTGGCCAACAATGATGAAATGGTGCTCCTCCCCATCAATGAACCTGTGCATGGAACAAAGAGAAAGTCGCAGATTCAAACATTTTTAGAGCACAATGAGGGAGCTGGGCTACAGCACCTCGCATTGATGTCAGAAGATATTTTTCGAACGTTGAGGGAGATGCGGAAACGATCTGGTGTAGGCGGCTTTGACTTCATGCCATCCCCTCCGCCAACCTACTACAAGAACCTGAAGAAGAGGGTTGGAGACGTCCTTTCCGAGGAGCAAATTGAAGAATGTGAGGAGCTTGGAATTCTGGTGGACAGAGATGATCAAGGAACACTACTTCAGATCGCCACAAAACCATTGGGCGACAGGCCAACGATATGGATTGAGATCATTCAGCGCGTTGGATGCATGAAGCGTGATGAGGAAGGGAAGGTCTACCAGAGTGGCGGTTGTGGTGGATTTGGAAAAGGAAATTTTTCTGAGCTGTTCAAAAGCATAGAAGAGTATGAGAAAACATTGGAGGCCAAGCAGCTTGTTGGTTGA", "values": [{"measurement": "Resistance evaluation", "setting": "[1]; mesotrione 52.5 g ai/ha", "result": "Moderately"}, {"measurement": "Scores", "setting": "[1]; mesotrione 52.5 g ai/ha", "result": 31}, {"measurement": "Grade 0 (classification and statistics of the grade of pesticide damage; number of plants)", "setting": "[1]; mesotrione 52.5 g ai/ha", "result": 5}, {"measurement": "Grade 1 (classification and statistics of the grade of pesticide damage; number of plants)", "setting": "[1]; mesotrione 52.5 g ai/ha", "result": 8}, {"measurement": "Grade 2 (classification and statistics of the grade of pesticide damage; number of plants)", "setting": "[1]; mesotrione 52.5 g ai/ha", "result": 2}, {"measurement": "Grade 3 (classification and statistics of the grade of pesticide damage; number of plants)", "setting": "[1]; mesotrione 52.5 g ai/ha", "result": 1}, {"measurement": "Resistance evaluation", "setting": "[1]; mesotrione 105 g ai/ha", "result": "Poorly resistant"}, {"measurement": "Scores", "setting": "[1]; mesotrione 105 g ai/ha", "result": 40}, {"measurement": "Grade 0 (classification and statistics of the grade of pesticide damage; number of plants)", "setting": "[1]; mesotrione 105 g ai/ha", "result": 0}, {"measurement": "Grade 1 (classification and statistics of the grade of pesticide damage; number of plants)", "setting": "[1]; mesotrione 105 g ai/ha", "result": 13}, {"measurement": "Grade 2 (classification and statistics of the grade of pesticide damage; number of plants)", "setting": "[1]; mesotrione 105 g ai/ha", "result": 3}, {"measurement": "Grade 3 (classification and statistics of the grade of pesticide damage; number of plants)", "setting": "[1]; mesotrione 105 g ai/ha", "result": 0}, {"measurement": "Classification and statistics of the grade of pesticide damage: Grade 0", "setting": "[2]; topramezone 25 g ai/ha (1×)", "result": 6}, {"measurement": "Classification and statistics of the grade of pesticide damage: Grade 1", "setting": "[2]; topramezone 25 g ai/ha (1×)", "result": 6}, {"measurement": "Classification and statistics of the grade of pesticide damage: Grade 2", "setting": "[2]; topramezone 25 g ai/ha (1×)", "result": 4}, {"measurement": "Classification and statistics of the grade of pesticide damage: Grade 3", "setting": "[2]; topramezone 25 g ai/ha (1×)", "result": 0}, {"measurement": "Classification and statistics of the grade of pesticide damage: Grade 0", "setting": "[2]; topramezone 100 g ai/ha (4×)", "result": 3}, {"measurement": "Classification and statistics of the grade of pesticide damage: Grade 1", "setting": "[2]; topramezone 100 g ai/ha (4×)", "result": 8}, {"measurement": "Classification and statistics of the grade of pesticide damage: Grade 2", "setting": "[2]; topramezone 100 g ai/ha (4×)", "result": 5}, {"measurement": "Classification and statistics of the grade of pesticide damage: Grade 3", "setting": "[2]; topramezone 100 g ai/ha (4×)", "result": 0}, {"measurement": "Scores", "setting": "[2]; topramezone 25 g ai/ha (1×)", "result": 29}, {"measurement": "Scores", "setting": "[2]; topramezone 100 g ai/ha (4×)", "result": 38}, {"measurement": "Resistance evaluation", "setting": "[2]; topramezone 25 g ai/ha (1×)", "result": "moderately"}, {"measurement": "Resistance evaluation", "setting": "[2]; topramezone 100 g ai/ha (4×)", "result": "poorly"}, {"measurement": "Resistance evaluation", "setting": "[3]; [4]", "result": "Moderately"}, {"measurement": "Scores (pesticide damage)", "setting": "[3]; [4]", "result": 29}, {"measurement": "Classification and statistics of the grade of pesticide damage: Grade 0 (number of plants)", "setting": "[3]; [4]", "result": 5}, {"measurement": "Classification and statistics of the grade of pesticide damage: Grade 1 (number of plants)", "setting": "[3]; [4]", "result": 8}, {"measurement": "Classification and statistics of the grade of pesticide damage: Grade 2 (number of plants)", "setting": "[3]; [4]", "result": 3}, {"measurement": "Classification and statistics of the grade of pesticide damage: Grade 3 (number of plants)", "setting": "[3]; [4]", "result": 0}, {"measurement": "Resistance evaluation", "setting": "[3]; [5]", "result": "Moderately"}, {"measurement": "Scores (pesticide damage)", "setting": "[3]; [5]", "result": 33}, {"measurement": "Classification and statistics of the grade of pesticide damage: Grade 0 (number of plants)", "setting": "[3]; [5]", "result": 3}, {"measurement": "Classification and statistics of the grade of pesticide damage: Grade 1 (number of plants)", "setting": "[3]; [5]", "result": 10}, {"measurement": "Classification and statistics of the grade of pesticide damage: Grade 2 (number of plants)", "setting": "[3]; [5]", "result": 3}, {"measurement": "Classification and statistics of the grade of pesticide damage: Grade 3 (number of plants)", "setting": "[3]; [5]", "result": 0}]}]}
